This note sets out measurements from publication PMC9237115 (2022).

For assay [1], the target named is Cdk2-phosphorylated Tau (PTau^Cdk2) (human, UniProt P10636-8 1-441, phosphorylated in vitro by Cdk2/CyA2, heterogeneously; LC-MS/MS confirmed phosphorylation of the AT8 (S202 and T205), AT180 (T231 and S235) and PHF1 (S396 and S404) epitopes; full list of sites in …). Kind of assay: Cdk2-phosphorylated Tau.
The target of assay [2] is T1, Full-length human Tau (MAPT) (human, UniProt P10636-8 1-441).
The target of assay [3] is T1, Full-length human Tau (MAPT). Nature of the assay: previously reported (ref 2).

Like-named read-outs stand apart in the source and are kept apart here.

T1 sequence (P10636 other isoform, or with tags, fused parts or gaps): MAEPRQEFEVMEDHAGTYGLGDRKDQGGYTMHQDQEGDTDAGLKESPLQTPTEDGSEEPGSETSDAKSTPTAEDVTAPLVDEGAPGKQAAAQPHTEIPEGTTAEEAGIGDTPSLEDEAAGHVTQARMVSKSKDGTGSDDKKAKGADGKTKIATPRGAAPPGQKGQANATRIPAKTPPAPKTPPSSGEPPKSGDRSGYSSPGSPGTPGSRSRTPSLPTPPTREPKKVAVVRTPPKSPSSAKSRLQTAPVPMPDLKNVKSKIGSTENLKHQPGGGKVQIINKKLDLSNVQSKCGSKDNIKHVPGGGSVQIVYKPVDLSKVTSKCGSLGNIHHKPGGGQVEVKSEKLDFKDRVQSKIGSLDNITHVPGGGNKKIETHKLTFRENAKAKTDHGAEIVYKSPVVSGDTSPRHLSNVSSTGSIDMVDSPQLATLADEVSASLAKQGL
Sequence of Cdk2-phosphorylated Tau (PTau^Cdk2) (P10636 other isoform, or with tags, fused parts or gaps): as above

B1: Hsp90 (HSP90AB1) (natural protein)
chain: not shown
By Kd is commonly meant the concentration at which binding is half-saturated. Higher therefore signals lower affinity. Regarding B1, the Kd turned out to be 27.9 µM in assay [1], 4.1 µM in assay [2] and 4.8 µM in assay [3].
